For three substances, Kd, koff and kon results are on record in PMC10303687.

By Kd is commonly meant the concentration at which binding is half-saturated. By koff is commonly meant the rate constant with which the complex falls apart. A high value points to fast dissociation. The kon is a measure of how fast the partners come together.

The target of this assay is MDM2_(D. rerio) SWIB domain (zebra fish (Danio rerio)). Kind of assay: stopped-flow fluorescence kinetics; 10°C, 20 mM sodium phosphate pH 7.4, 150 mM NaCl, 1 mM TCEP; Trp23 emission; MDM2 constant at 0.5–2 μM, p53TAD varied 1–10 μM for k on; k off from displacement of the 1 μM:1 μM complex by 10–20 μM dansylated human p53TAD peptide; K D = k off/k on.

p73TAD_(D. rerio) (peptide): the Kd stood at 120 nM, the koff is 3.7 s⁻¹ and the kon was 3.2e+07 M⁻¹ s⁻¹.

In turn, p53TAD_(D. rerio)^14–27 (peptide) had a Kd of 1900 nM, a koff of 31 s⁻¹ and a kon of 1.59e+07 M⁻¹ s⁻¹.

The substance p53TAD_(D. rerio)^N26L (peptide) returned a Kd of 340 nM, a koff of 5.2 s⁻¹ and a kon of 1.55e+07 M⁻¹ s⁻¹.
